Results: publication PMC8113721, “The lysosomal protein ABCD4 can transport vitamin B12 across liposomal membranes in vitro” (The Journal of Biological Chemistry, 2021)
Each block holds one binder with its values, some of them ahead of it.

B2: His-tagged human ABCD4 (natural protein)
chain: AVAGPAPGAGARPRLDLQFLQRFLQILKVLFPSWSSQNALMFLTLLCLTLLEQFVIYQVGLIPSQYYGVLGNKDLEGFKTLTFLAVMLIVLNSTLKSFDQFTCNLLYVSWRKDLTEHLHRLYFRGRAYYTLNVLRDDIDNPDQRISQDVERFCRQLSSMASKLIISPFTLVYYTYQCFQSTGWLGPVSIFGYFILGTVVNKTLMGPIVMKLVHQEKLEGDFRFKHMQIRVNAEPAAFYRAGHVEHMRTDRRLQRLLQTQRELMSKELWLYIGINTFDYLGSILSYVVIAIPIFSGVYGDLSPAELSTLVSKNAFVCIYLISCFTQLIDLSTTLSDVAGYTHRIGQLRETLLDMSLKSQDCEILGESEWGLDTPPGWPAAEPADTAFLLERVSISAPSSDKPLIKDLSLKISEGQSLLITGNTGTGKTSLLRVLGGLWTSTRGSVQMLTDFGPHGVLFLPQKPFFTDGTLREQVIYPLKEVYPDSGSADDERILRFLELAGLSNLVARTEGLDQQVDWNWYDVLSPGEMQRLSFARLFYLQPKYAVLDEATSALTEEVESELYRIGQQLGMTFISVGHRQSLEKFHSLVLKLCGGGRWELMRIKVE
notes: ABCD4 (ABC transporter subfamily D member 4), human; also called His-ABCD4; wildtype ABCD4; source: also reconstituted in liposomes

Columns and labels:
His-tagged human ABCD4 = target: B2; experiment: cross-linking; purified His-ABCD4 and LMBD1–GST mixed; SDA and m-maleimidobenzoyl-N-hydroxysuccinimide ester (2 mM each), UV irradiation; immunoblot; conditions: both partners purified
[1] = target: the molecule itself; experiment: as above
[2] = target: the molecule itself; experiment: SEC; purified His-ABCD4 solubilized in β-DDM; size exclusion chromatography, polydisperse profile with a ∼360 kDa major peak
[3] = target: the molecule itself; experiment: not stated; mutant His-ABCD4 reconstituted in liposomes (Fig. S11B); the text does not name the method

stoichiometry N (His-tagged human ABCD4): 1
B1: glutathione-S-transferase (GST)–tagged LMBD1 (natural protein, human, UniProt Q9NUN5 1-540, looked up)
chain: MATSGAASAELVIGWCIFGLLLLAILAFCWIYVRKYQSRRESEVVSTITAIFSLAIALITSALLPVDIFLVSYMKNQNGTFKDWANANVSRQIEDTVLYGYYTLYSVILFCVFFWIPFVYFYYEEKDDDDTSKCTQIKTALKYTLGFVVICALLLLVGAFVPLNVPNNKNSTEWEKVKSLFEELGSSHGLAALSFSISSLTLIGMLAAITYTAYGMSALPLNLIKGTRSAAYERLENTEDIEEVEQHIQTIKSKSKDGRPLPARDKRALKQFEERLRTLKKRERHLEFIENSWWTKFCGALRPLKIVWGIFFILVALLFVISLFLSNLDKALHSAGIDSGFIIFGANLSNPLNMLLPLLQTVFPLDYILITIIIMYFIFTSMAGIRNIGIWFFWIRLYKIRRGRTRPQALLFLCMILLLIVLHTSYMIYSLAPQYVMYGSQNYLIETNITSDNHKGNSTLSVPKRCDADAPEDQCTVTRTYLFLHKFWFFSAAYYFGNWAFLGVFLIGLIVSCCKGKKSVIEGVDEDSDISDDEPSVYSA
notes: LMBD1 (lysosomal membrane protein encoded by LMBRD1), human; GST itself can dimerise; the dimer seen by cross-linking is of the GST fusion; also called LMBD1–GST; source: also reconstituted in liposomes with His-ABCD4
stoichiometry N [1]: 2

Binder: B2
stoichiometry N [2]: 2

B3: His-ABCD4 (Y319C) (natural protein, human)
chain: AVAGPAPGAGARPRLDLQFLQRFLQILKVLFPSWSSQNALMFLTLLCLTLLEQFVIYQVGLIPSQYYGVLGNKDLEGFKTLTFLAVMLIVLNSTLKSFDQFTCNLLYVSWRKDLTEHLHRLYFRGRAYYTLNVLRDDIDNPDQRISQDVERFCRQLSSMASKLIISPFTLVYYTYQCFQSTGWLGPVSIFGYFILGTVVNKTLMGPIVMKLVHQEKLEGDFRFKHMQIRVNAEPAAFYRAGHVEHMRTDRRLQRLLQTQRELMSKELWLYIGINTFDYLGSILSYVVIAIPIFSGVYGDLSPAELSTLVSKNAFVCICLISCFTQLIDLSTTLSDVAGYTHRIGQLRETLLDMSLKSQDCEILGESEWGLDTPPGWPAAEPADTAFLLERVSISAPSSDKPLIKDLSLKISEGQSLLITGNTGTGKTSLLRVLGGLWTSTRGSVQMLTDFGPHGVLFLPQKPFFTDGTLREQVIYPLKEVYPDSGSADDERILRFLELAGLSNLVARTEGLDQQVDWNWYDVLSPGEMQRLSFARLFYLQPKYAVLDEATSALTEEVESELYRIGQQLGMTFISVGHRQSLEKFHSLVLKLCGGGRWELMRIKVE
notes: ABCD4, human, with the clinical missense mutation Y319C; Y319C is a clinical mutation reported in cobalamin deficiency; source: K. phaffii, purified and reconstituted in liposomes using the same procedure as used for His-ABCD4
stoichiometry N [3]: 2

B4: His-ABCD4 (N141K) (natural protein, human)
chain: AVAGPAPGAGARPRLDLQFLQRFLQILKVLFPSWSSQNALMFLTLLCLTLLEQFVIYQVGLIPSQYYGVLGNKDLEGFKTLTFLAVMLIVLNSTLKSFDQFTCNLLYVSWRKDLTEHLHRLYFRGRAYYTLNVLRDDIDKPDQRISQDVERFCRQLSSMASKLIISPFTLVYYTYQCFQSTGWLGPVSIFGYFILGTVVNKTLMGPIVMKLVHQEKLEGDFRFKHMQIRVNAEPAAFYRAGHVEHMRTDRRLQRLLQTQRELMSKELWLYIGINTFDYLGSILSYVVIAIPIFSGVYGDLSPAELSTLVSKNAFVCIYLISCFTQLIDLSTTLSDVAGYTHRIGQLRETLLDMSLKSQDCEILGESEWGLDTPPGWPAAEPADTAFLLERVSISAPSSDKPLIKDLSLKISEGQSLLITGNTGTGKTSLLRVLGGLWTSTRGSVQMLTDFGPHGVLFLPQKPFFTDGTLREQVIYPLKEVYPDSGSADDERILRFLELAGLSNLVARTEGLDQQVDWNWYDVLSPGEMQRLSFARLFYLQPKYAVLDEATSALTEEVESELYRIGQQLGMTFISVGHRQSLEKFHSLVLKLCGGGRWELMRIKVE
notes: ABCD4, human, with the clinical missense mutation N141K; N141K is a clinical mutation reported in cobalamin deficiency; source: K. phaffii, purified and reconstituted in liposomes using the same procedure as used for His-ABCD4
stoichiometry N [3]: 2
